Reference: patent publication US20110318356A1 (Novo Nordisk, published 2011)
Values belong to the binder of their own block, whether it stands above or below them.

Key:
[1] = biological target: T1, recombinant full length human tissue factor pathway inhibitor (TFPI) (human, UniProt P10646 29-304); test: SPR (Biacore), recombinant human TFPI over the mAb
T1 construct: also called TFPI1; human TFPI
Experimental: Binding interaction analysis was obtained by Surface Plasmon Resonance in a Biacore 3000. Capture of the relevant monoclonal antibody at a fixed concentration was obtained with immobilised mouse anti-IgG. Different concentrations of TFPI were tested.
(§1) These were followed by a direct binding kinetic procedure on selected mAb constructs, with the monoclonal antibody covalently coupled via free amine groups to the carboxymethylated dextrane membrane (CM5) on the sensor chip surface.

[2] = biological target: T1, recombinant full length human tissue …; test: SPR (Biacore)
Text: The affinity analyses were done using SRP as described below.
as §1

[3] = biological target: T1, recombinant full length human tissue …; test: SPR (Biacore), TFPI
[4] = biological target: T1, recombinant full length human tissue …; test: SPR (Biacore), recombinant human TFPI
[5] = biological target: T1, recombinant full length human tissue …; test: SPR (Biacore), recombinant human TFPI; remark: listed apart in the source
[6] = biological target: T1, recombinant full length human tissue …; test: cell-based or functional assay
[7] = biological target: T1, recombinant full length human tissue …; test: cell-based or functional assay; remark: listed apart in the source
[8] = biological target: T2, human TFPI short form (1-161 amino acid residues) (human, UniProt P10646 29-189); test: SPR (Biacore T-100), mAb immobilised, TFPI161 (K1 and K2 domains)
T2 construct: also called TFPI161; TFPI (1-161)
Experimental: (§2) Binding interaction analysis was obtained by Surface Plasmon Resonance in a Biacore T-100 instrument. Capture of the relevant monoclonal antibody at a fixed concentration was obtained by direct immobilization to a CM5 chip of the mAb to a level of 500-1000 RU in 10 mM sodium acetate pH 4.5-5.0. […] Running and dilution buffer: 10 mM HEPES, 150 mM, 0.005% p20, pH 7.4. Regeneration was obtained by 10 mM Glycine, pH 1.7. Determination of kinetic and binding constants (kₒₙ, koff, KD) was obtained assuming a 1:1 interaction of TFPI and the antibody of interest using the Biacore T100 evaluation software. […] Regeneration of the chip was obtained by 10 mM Glycine, pH 1.7.

[9] = biological target: T1, recombinant full length human tissue …; test: SPR (Biacore T-100), mAb immobilised, full length human TFPI
Experimental: as §2

[10] = biological target: T1, recombinant full length human tissue …; test: SPR (Biacore T-100), mAb immobilised on CM5 chip, full length human TFPI, 1:1 model
Experimental: as §2

B1: HzTFPI4F36-CDRgrafted (initial CDR grafted version of humanized TFPI4F36) (antibody, human IgG4 S228P, kappa)
heavy: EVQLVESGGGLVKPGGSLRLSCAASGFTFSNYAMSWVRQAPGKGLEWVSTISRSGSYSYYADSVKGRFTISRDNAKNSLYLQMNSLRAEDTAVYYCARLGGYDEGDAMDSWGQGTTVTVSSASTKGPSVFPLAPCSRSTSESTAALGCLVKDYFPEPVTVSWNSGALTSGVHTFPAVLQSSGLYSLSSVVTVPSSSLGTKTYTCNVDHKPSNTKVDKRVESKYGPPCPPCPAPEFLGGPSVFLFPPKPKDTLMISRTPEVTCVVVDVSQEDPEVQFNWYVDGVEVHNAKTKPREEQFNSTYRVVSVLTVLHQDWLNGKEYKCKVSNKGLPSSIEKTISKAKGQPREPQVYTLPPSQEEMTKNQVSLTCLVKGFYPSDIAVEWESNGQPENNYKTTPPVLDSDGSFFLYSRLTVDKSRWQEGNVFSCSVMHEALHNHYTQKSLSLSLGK
light: DIVMTQTPLSLSVTPGQPASISCKSSQSLLESDGKTYLNWYLQKPGQSPQLLIYLVSILDSGVPDRFSGSGSGTDFTLKISRVEAEDVGVYYCLQATHFPQTFGGGTKVEIKRTVAAPSVFIFPPSDEQLKSGTASVVCLLNNFYPREAKVQWKVDNALQSGNSQESVTEQDSKDSTYSLSSTLTLSKADYEKHKVYACEVTHQGLSSPVTKSFNRGEC
notes: human kappa/IgG4(S241P); also called hz4F36CDRgraft
Kd [1]: 2.06 nM
kon [1]: 1.07e+06 M⁻¹ s⁻¹
fold lower affinity than the original mouse TFPI4F36 antibody [2]: ≥ 100 fold

B2: HzTFPI4F36 HC-G42E, G44R, CDR2 (antibody, human IgG4 S228P, kappa, name in Kabat numbering, V domains shown)
VH: EVQLVESGGGLVKPGGSLRLSCAASGFTFSNYAMSWVRQAPEKRLEWVSTISRSGSYSYFPDSVQGRFTISRDNAKNSLYLQMNSLRAEDTAVYYCARLGGYDEGDAMDSWGQGTTVTVSS
VL: DIVMTQTPLSLSVTPGQPASISCKSSQSLLESDGKTYLNWYLQKPGQSPQLLIYLVSILDSGVPDRFSGSGSGTDFTLKISRVEAEDVGVYYCLQATHFPQTFGGGTKVEIKR
notes: Mutated CDR-grafted heavy chain with wild type CDR-grafted light chain; Kabat numbering; also called HzTFPI4F36 G42E, G44R, Y59F, A60P, K64Q
Kd [3]: 0.039 nM
Kd [4]: 0.039 nM

B4: HzTFPI4F36 (mAbTFPI2021) humanized monoclonal antibody (antibody, human IgG4 S228P, kappa, V domains shown)
VH: EVQLVESGGGLVKPGGSLRLSCAASGFTFSNYAMSWVRQTPEKRLEWVATISRSGSYSYFPDSVQGRFTISRDNAKNSLYLQMNSLRAEDTAVYYCARLGGYDEGDAMDSWGQGTTVTVSS
VL: DIVMTQTPLSLSVTPGQPASISCKSSQSLLESDGKTYLNWYLQKPGQSPQLLIYLVSILDSGVPDRFSGSGSGTDFTLKISRVEAEDVGVYYCLQATHFPQTFGGGTKVEIKR
notes: human kappa/IgG4(S241P); also called mAb2021; mAbTFPI4F36
Kd [3]: 0.026 nM
Kd [4]: 0.026 nM
IC50, neutralization of TFPI inhibition of FXa [6]: 12.6 nM
IC50, neutralization of TFPI inhibition of FVIIa/TF/FX [7]: 3.8 nM
Kd [8]: 0.0455 nM
Kd [9]: 0.015 nM
Kd [2]: ~0.025 nM
Kd [10]: 0.015 nM
koff [10]: 3.58e-05 s⁻¹
kon [10]: 2.39e+06 M⁻¹ s⁻¹

B6: HzTFPI4F36 HC-G42E, G44R, A60P, K64Q (antibody, human IgG4 S228P, kappa, name in Kabat numbering, V domains shown)
VH: EVQLVESGGGLVKPGGSLRLSCAASGFTFSNYAMSWVRQAPEKRLEWVSTISRSGSYSYYPDSVQGRFTISRDNAKNSLYLQMNSLRAEDTAVYYCARLGGYDEGDAMDSWGQGTTVTVSS
VL: DIVMTQTPLSLSVTPGQPASISCKSSQSLLESDGKTYLNWYLQKPGQSPQLLIYLVSILDSGVPDRFSGSGSGTDFTLKISRVEAEDVGVYYCLQATHFPQTFGGGTKVEIKR
notes: Mutated CDR-grafted heavy chain with wild type CDR-grafted light chain; Kabat numbering; also called HzTFPI4F36 G42E, G44R, A60P, K64Q
Kd [3]: 0.093 nM
Kd [4]: 0.093 nM

Other lines, results leading:

Kd [5]: > 0.03 nM
B3: HzTFPI4F36 LC-Y36L (antibody, human IgG4 S228P, kappa, name in Kabat numbering, V domains shown)
VH: EVQLVESGGGLVKPGGSLRLSCAASGFTFSNYAMSWVRQAPGKGLEWVSTISRSGSYSYYADSVKGRFTISRDNAKNSLYLQMNSLRAEDTAVYYCARLGGYDEGDAMDSWGQGTTVTVSS
VL: DIVMTQTPLSLSVTPGQPASISCKSSQSLLESDGKTYLNWLLQKPGQSPQLLIYLVSILDSGVPDRFSGSGSGTDFTLKISRVEAEDVGVYYCLQATHFPQTFGGGTKVEIKR
notes: Mutated CDR-grafted light chain with wild type CDR-grafted heavy chain; Kabat numbering

Kd [5]: 17 nM
B5: HzTFPI4F36 LC-P15I (antibody, human IgG4 S228P, kappa, name in Kabat numbering)
heavy: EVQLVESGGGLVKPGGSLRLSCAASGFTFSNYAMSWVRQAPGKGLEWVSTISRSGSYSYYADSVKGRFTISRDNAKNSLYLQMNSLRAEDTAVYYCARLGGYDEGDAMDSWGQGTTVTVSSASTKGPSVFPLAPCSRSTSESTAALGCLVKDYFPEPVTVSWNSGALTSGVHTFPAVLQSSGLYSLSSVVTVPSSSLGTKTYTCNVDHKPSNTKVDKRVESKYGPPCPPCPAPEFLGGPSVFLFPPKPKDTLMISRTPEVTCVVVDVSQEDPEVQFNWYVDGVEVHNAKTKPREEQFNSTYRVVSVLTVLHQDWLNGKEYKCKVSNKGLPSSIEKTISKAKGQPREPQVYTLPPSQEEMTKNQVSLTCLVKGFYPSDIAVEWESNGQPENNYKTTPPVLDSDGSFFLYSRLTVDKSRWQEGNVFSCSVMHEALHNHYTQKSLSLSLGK
light: DIVMTQTPLSLSVTIGQPASISCKSSQSLLESDGKTYLNWYLQKPGQSPQLLIYLVSILDSGVPDRFSGSGSGTDFTLKISRVEAEDVGVYYCLQATHFPQTFGGGTKVEIKRTVAAPSVFIFPPSDEQLKSGTASVVCLLNNFYPREAKVQWKVDNALQSGNSQESVTEQDSKDSTYSLSSTLTLSKADYEKHKVYACEVTHQGLSSPVTKSFNRGEC
notes: as for B3

Kd [5]: 0.64 nM
B7: HzTFPI4F36 LC-P15I, FR2 (antibody, human IgG4 S228P, kappa, name in Kabat numbering)
heavy: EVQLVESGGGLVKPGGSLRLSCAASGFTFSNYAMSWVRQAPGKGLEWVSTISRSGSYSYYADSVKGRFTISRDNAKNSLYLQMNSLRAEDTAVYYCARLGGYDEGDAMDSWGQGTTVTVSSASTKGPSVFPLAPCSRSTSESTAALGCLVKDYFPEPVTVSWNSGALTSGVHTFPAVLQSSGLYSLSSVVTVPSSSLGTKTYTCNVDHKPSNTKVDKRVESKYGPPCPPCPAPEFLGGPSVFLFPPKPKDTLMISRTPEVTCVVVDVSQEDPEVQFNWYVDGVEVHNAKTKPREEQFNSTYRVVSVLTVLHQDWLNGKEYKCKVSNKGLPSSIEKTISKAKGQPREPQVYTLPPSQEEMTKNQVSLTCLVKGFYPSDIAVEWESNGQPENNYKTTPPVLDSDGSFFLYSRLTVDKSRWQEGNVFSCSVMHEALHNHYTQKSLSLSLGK
light: DIVMTQTPLSLSVTIGQPASISCKSSQSLLESDGKTYLNWLLQRPGESPKLLIYLVSILDSGVPDRFSGSGSGTDFTLKISRVEAEDVGVYYCLQATHFPQTFGGGTKVEIKRTVAAPSVFIFPPSDEQLKSGTASVVCLLNNFYPREAKVQWKVDNALQSGNSQESVTEQDSKDSTYSLSSTLTLSKADYEKHKVYACEVTHQGLSSPVTKSFNRGEC
notes: as for B3

Kd [5]: 7.8 nM
B8: HzTFPI4F36 LC-S63T (antibody, human IgG4 S228P, kappa, name in Kabat numbering, V domains shown)
VH: EVQLVESGGGLVKPGGSLRLSCAASGFTFSNYAMSWVRQAPGKGLEWVSTISRSGSYSYYADSVKGRFTISRDNAKNSLYLQMNSLRAEDTAVYYCARLGGYDEGDAMDSWGQGTTVTVSS
VL: DIVMTQTPLSLSVTPGQPASISCKSSQSLLESDGKTYLNWYLQKPGQSPQLLIYLVSILDSGVPDRFTGSGSGTDFTLKISRVEAEDVGVYYCLQATHFPQTFGGGTKVEIKR
notes: Mutated CDR-grafted light chain with wild type CDR-grafted heavy chain; human kappa/IgG4(S241P)

Kd [1]: 0.0282 nM
kon [1]: 4.7e+06 M⁻¹ s⁻¹
Kd [2]: ~0.03 nM
B9: MuTFPI4F36 (TFPI-4F36A1B2) murine monoclonal antibody (antibody, mouse IgG1, kappa, V domains shown)
VH: EVELVESGGGLVKPGGSLKLSCAASGFTFSNYAMSWVRQTPEKRLEWVATISRSGSYSYFPDSVQGRFTISRDNAKNTLYLQMSSLRSEDTAMYYCTRLGGYDEGDAMDSWGQGTSVTVSS
VL: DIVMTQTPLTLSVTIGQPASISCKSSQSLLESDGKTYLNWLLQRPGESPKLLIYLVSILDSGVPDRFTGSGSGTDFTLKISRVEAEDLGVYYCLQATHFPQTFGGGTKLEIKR
notes: murine kappa / IgG1; also called anti-TFPI4F36A1B2; Murine TFPI4F36
